# According to the supplement of paper PMC10724198:
# ± gives the standard deviation of the averaged measurements.
# Tested on: Saccharomyces cerevisiae
# Experiment: protein stability index of tFT-peptide fusion (C-terminal peptide) (PSI (0-1 scale)); higher = more stable (slower turnover)
# Conditions: genetic background: wild type; temperature: 30 C
# 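Note: PSI is a weighted mean of sequencing reads over stability bins, variants kept only with over 10 reads, mCherry proximal and sfGFP distal, peptide attached via GGGS linker.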
sequence,measurement,value
AGLWWGGCAAGA,protein stability index,0.804 ± 0.037
LCFGGLVLFSFG,protein stability index,0.601 ± 0.035
RWVGVGPEGGVA,protein stability index,0.678 ± 0.068
YTSELPVLARRH,protein stability index,0.633 ± 0.021
NNRKKKGRRRQE,protein stability index,0.674 ± 0.042
TYFMSAFWPPGV,protein stability index,0.631 ± 0.03
STFASLRPLFFS,protein stability index,0.6128 ± 0.0012
ASVLFILAIPDL,protein stability index,0.565 ± 0.039
SPPTPPPSPPFL,protein stability index,0.523 ± 0.012
RVSVRGLESGVC,protein stability index,0.665 ± 0.026
LLPVFSYVPTFH,protein stability index,0.648 ± 0.047
STAPRYNGRKYS,protein stability index,0.702 ± 0.069
DNARCKSPRSLN,protein stability index,0.621 ± 0.092
LNIVVTQNKNKK,protein stability index,0.73 ± 0.035
HLSPPPLPPLTS,protein stability index,0.696 ± 0.037
PPLPPPPPRLPA,protein stability index,0.636 ± 0.025
AKRLYLLTNRND,protein stability index,0.634 ± 0.025
LPPLGAPQPPPP,protein stability index,0.731 ± 0.021
TSVFPLFSPLRS,protein stability index,0.721 ± 0.029
RDPSVVGLGRPP,protein stability index,0.604 ± 0.0076
AFCCRSPPSSHP,protein stability index,0.655 ± 0.096
VGFVAWFRNVCR,protein stability index,0.653 ± 0.044
YSPFCPSASPWA,protein stability index,0.712 ± 0.023
FRLLSTINSCCV,protein stability index,0.612 ± 0.036
CVCGRFGGELGV,protein stability index,0.653 ± 0.1
PSHRPWPPTRPP,protein stability index,0.677 ± 0.033
FPTIGLSCSFPH,protein stability index,0.676 ± 0.042
AYNFMTSVVPGK,protein stability index,0.744 ± 0.056
RPPSNRPPPPSS,protein stability index,0.698 ± 0.0032
SGRRRAPPAPSP,protein stability index,0.732 ± 0.037
AGSTGGGRGRDW,protein stability index,0.76 ± 0.14
RDAGPSKERNRR,protein stability index,0.675 ± 0.039
RGGSVGRGRLCL,protein stability index,0.643 ± 0.014
FSLFGVGQITFL,protein stability index,0.683 ± 0.056
RPRTSLFPCSLP,protein stability index,0.711 ± 0.081
RVLSQAGSYSLC,protein stability index,0.587 ± 0.019
LPPIAFPPSFSP,protein stability index,0.69983 ± 0.00059
PPPLTPSPPPPP,protein stability index,0.663 ± 0.021
WCWCSLVVDGTA,protein stability index,0.5707 ± 0.0047
HLPPLHRLSPPI,protein stability index,0.668 ± 0.04
FIQFGYVSSVIQ,protein stability index,0.722 ± 0.031
VRNPLRSFSGDA,protein stability index,0.64 ± 0.049
VFMVLLLGFRRF,protein stability index,0.549 ± 0.011
VPPPVCAVPPPL,protein stability index,0.684 ± 0.036
GGGGCVGEWWGR,protein stability index,0.7423 ± 0.0039
PPPPPPPPPPTL,protein stability index,0.712 ± 0.028
FSPAPPLLLHPS,protein stability index,0.714 ± 0.043
DVDWVLTLGCLG,protein stability index,0.647 ± 0.034
PPPDPPRHGRPE,protein stability index,0.684 ± 0.035
PSRLPSPPPPPP,protein stability index,0.721 ± 0.073
KFSFVVAVHAGL,protein stability index,0.545 ± 0.024
QSFGSYYLTIAL,protein stability index,0.67 ± 0.036
GLRFIAMNIQML,protein stability index,0.658 ± 0.026
TFARMYRKGSED,protein stability index,0.686 ± 0.0077
ILCQLRKFKFQN,protein stability index,0.58 ± 0.013
LFPYPPASALLR,protein stability index,0.662 ± 0.019
RTRRGRIGEIGP,protein stability index,0.703 ± 0.037
SLSHPSPPRTLP,protein stability index,0.697 ± 0.007
RPFLPPPPHCPP,protein stability index,0.75 ± 0.036
STAEFLDFKMTT,protein stability index,0.691 ± 0.05
FWSCSTGHERVV,protein stability index,0.711 ± 0.03
RGRSVEGSRGGW,protein stability index,0.6781 ± 0.0048
HVPGGRADMTRS,protein stability index,0.706 ± 0.0097
MGSQATPQRENS,protein stability index,0.659 ± 0.12
FVRLFSGTLKSV,protein stability index,0.687 ± 0.033
HPGPFSTTWHPT,protein stability index,0.743 ± 0.068
MLFLGPRLVVPA,protein stability index,0.565 ± 0.0097
EKYSSHPMDTRQ,protein stability index,0.653 ± 0.013
LEHPAHPTKLQL,protein stability index,0.7067 ± 0.0033
CSLWVLKLFLGV,protein stability index,0.544 ± 0.012
SRSSASTKRNRW,protein stability index,0.701 ± 0.096
NRNVLKTRKKST,protein stability index,0.593 ± 0.018
PYTHFFSPPFWP,protein stability index,0.766 ± 0.04
CRILRPITLRFR,protein stability index,0.528 ± 0.013
PCLLTNLPILPT,protein stability index,0.626 ± 0.077
RKMYRIKKEIKI,protein stability index,0.641 ± 0.098
LRPPSCCPLEIQ,protein stability index,0.705 ± 0.076
LQSGALEHLGAS,protein stability index,0.716 ± 0.074
YACRLAPGDLLA,protein stability index,0.643 ± 0.0088
PCINGSASRRSG,protein stability index,0.6189 ± 0.0058
TPTFALIHPTET,protein stability index,0.745 ± 0.031
TPNKKTGNQYPG,protein stability index,0.685 ± 0.038
ITDCAFIPLTVD,protein stability index,0.764 ± 0.095
YKGYEIIGSVQG,protein stability index,0.72 ± 0.023
VGRGPSAPVSCV,protein stability index,0.726 ± 0.061
GWWGCGGWGFVG,protein stability index,0.624 ± 0.05
VWGRRVMESHGE,protein stability index,0.628 ± 0.042
PSSFIRFLLCCF,protein stability index,0.644 ± 0.04
TSAASPVRYGGS,protein stability index,0.65 ± 0.014
NSPPPPRLRSSL,protein stability index,0.6937 ± 0.0018
FELTLLSPVCFS,protein stability index,0.579 ± 0.0089
RGHLPPIGLTRH,protein stability index,0.675 ± 0.013
HGSDTSIALRSG,protein stability index,0.622 ± 0.038
RRKHKSEEKHKR,protein stability index,0.649 ± 0.038
LPLSPRCFSLLG,protein stability index,0.6774 ± 0.0023
PPHFPLPLPPTP,protein stability index,0.706 ± 0.024
GYRVNIDIKIVY,protein stability index,0.5247 ± 0.0031
RVRAITRKCGQY,protein stability index,0.656 ± 0.051
IALPPPGILDSA,protein stability index,0.683 ± 0.16
GLPRAANMKGSE,protein stability index,0.652 ± 0.011
GWFVGLVSRSLH,protein stability index,0.67 ± 0.019
